B1: AGG-element oligo (dsDNA)
DNA 1: TTTGGGAGGCCGAGGTGGG
DNA 2: CCCACCTCGGCCTCCCAAA
B2: AGG oligo, unlabeled (dsDNA)
DNA 1: TTTGGGAGGCCGAGGTGGG
DNA 2: CCCACCTCGGCCTCCCAAA

Legend:
[1] = biological target: T1, Myc-STAT3 wild type (purified) (UniProt P40763 1-770); assay: EMSA; 2 ug protein, 1 nM probe; less efficient than SIE; Pull-down: 20 mM Hepes pH 7.9, 100 mM KCl, 5 mM MgCl2, 0.1 mM EDTA, 4 mM DTT, 12% glycerol, 60 min room temperature (Fig 6D: 30 min on ice); EMSA: LightShift chemiluminescent kit, buffer not stated; conditions: protein: recombinant; tags: Myc; chain copies: 2; label: 5'-biotin
[2] = biological target: Myc-STAT3 C-terminal region (purified) (UniProt P40763 465-770); assay: pull-down; IL-6; Pull-down: 20 mM Hepes pH 7.9, 100 mM KCl, 5 mM MgCl2, 0.1 mM EDTA, 4 mM DTT, 12% glycerol, 60 min room temperature (Fig 6D: 30 min on ice); EMSA: LightShift chemiluminescent kit, buffer not stated; conditions: protein: recombinant; tags: Myc; label: 5'-biotin
[3] = biological target: Myc-STAT3 1-355 (purified) (UniProt P40763 1-355); assay: as above; conditions: protein: recombinant; tags: Myc; label: 5'-biotin
[4] = biological target: Myc-STAT3 V461/462/463A (purified) (UniProt P40763 1-770, V461A;V462A;V463A); assay: pull-down; IL-6; enhanced vs WT; Pull-down: 20 mM Hepes pH 7.9, 100 mM KCl, 5 mM MgCl2, 0.1 mM EDTA, 4 mM DTT, 12% glycerol, 60 min room temperature (Fig 6D: 30 min on ice); EMSA: LightShift chemiluminescent kit, buffer not stated; conditions: protein: recombinant; tags: Myc; chain copies: 2; label: 5'-biotin
[5] = biological target: Myc-STAT3 R382Q (purified) (UniProt P40763 1-770, R382Q); assay: as above; conditions: protein: recombinant; tags: Myc; chain copies: 2; label: 5'-biotin
[6] = biological target: T1, Myc-STAT3 wild type (purified); assay: competition; 200-fold unlabeled competitor; Pull-down: 20 mM Hepes pH 7.9, 100 mM KCl, 5 mM MgCl2, 0.1 mM EDTA, 4 mM DTT, 12% glycerol, 60 min room temperature (Fig 6D: 30 min on ice); EMSA: LightShift chemiluminescent kit, buffer not stated; conditions: protein: recombinant; tags: Myc; chain copies: 2

T1 sequence (P40763 whole entry): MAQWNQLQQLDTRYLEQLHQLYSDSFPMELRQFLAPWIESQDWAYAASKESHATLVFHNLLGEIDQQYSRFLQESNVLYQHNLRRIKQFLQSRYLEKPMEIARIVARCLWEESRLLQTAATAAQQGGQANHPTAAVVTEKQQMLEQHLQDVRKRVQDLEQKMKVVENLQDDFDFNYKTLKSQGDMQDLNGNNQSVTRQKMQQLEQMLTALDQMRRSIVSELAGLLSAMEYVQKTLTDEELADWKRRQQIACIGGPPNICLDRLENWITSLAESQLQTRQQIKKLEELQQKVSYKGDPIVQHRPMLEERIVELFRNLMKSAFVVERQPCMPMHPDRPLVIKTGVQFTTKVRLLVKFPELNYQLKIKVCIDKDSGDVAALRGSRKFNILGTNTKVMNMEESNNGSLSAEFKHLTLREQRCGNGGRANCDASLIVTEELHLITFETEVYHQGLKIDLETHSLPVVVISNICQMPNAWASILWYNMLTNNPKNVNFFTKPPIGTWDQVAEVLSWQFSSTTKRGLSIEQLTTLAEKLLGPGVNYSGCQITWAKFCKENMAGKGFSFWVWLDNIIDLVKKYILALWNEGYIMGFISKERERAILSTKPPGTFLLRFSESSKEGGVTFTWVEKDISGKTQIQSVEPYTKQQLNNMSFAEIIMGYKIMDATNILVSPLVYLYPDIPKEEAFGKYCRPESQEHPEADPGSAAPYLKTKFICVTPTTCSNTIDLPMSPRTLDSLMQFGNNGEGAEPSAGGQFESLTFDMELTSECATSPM
Chain of Myc-STAT3 1-355 (purified) (P40763 1-355): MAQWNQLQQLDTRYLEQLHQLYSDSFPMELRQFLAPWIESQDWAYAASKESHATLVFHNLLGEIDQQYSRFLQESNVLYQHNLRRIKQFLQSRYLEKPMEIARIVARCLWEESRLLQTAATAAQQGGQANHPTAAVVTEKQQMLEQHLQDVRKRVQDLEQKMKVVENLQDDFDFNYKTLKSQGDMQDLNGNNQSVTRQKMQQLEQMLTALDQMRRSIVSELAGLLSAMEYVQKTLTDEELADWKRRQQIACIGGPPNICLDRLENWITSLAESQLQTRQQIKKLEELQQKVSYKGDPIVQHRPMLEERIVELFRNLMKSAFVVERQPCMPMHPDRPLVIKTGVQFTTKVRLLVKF
Chain of Myc-STAT3 R382Q (purified) (P40763 whole entry R382Q): as the sequence (P40763 whole entry) above, with R382Q counted along it
Chain of Myc-STAT3 V461/462/463A (purified) (P40763 whole entry V461A/V462A/V463A): as the sequence (P40763 whole entry) above, with V461A, V462A, V463A counted along it
Chain of Myc-STAT3 C-terminal region (purified) (P40763 465-770): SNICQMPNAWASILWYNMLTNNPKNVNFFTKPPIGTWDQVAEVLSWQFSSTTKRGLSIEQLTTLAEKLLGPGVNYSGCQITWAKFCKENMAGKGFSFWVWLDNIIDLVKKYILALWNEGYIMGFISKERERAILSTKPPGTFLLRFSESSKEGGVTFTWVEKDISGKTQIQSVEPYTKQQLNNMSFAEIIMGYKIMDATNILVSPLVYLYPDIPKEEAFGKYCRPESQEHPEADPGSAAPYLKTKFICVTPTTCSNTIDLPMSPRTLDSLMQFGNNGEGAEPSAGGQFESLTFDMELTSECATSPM

Binder	binding result [1]	binding result [2]	binding result [3]	binding result [4]	binding result [5]	binding result [6]
B1	binds	no binding	binds	binds	binds	–
B2	–	–	–	–	–	binds
